Laboratory results taken from the nanobody polyreactivity screen of Harvey et al. (2022).

Assay: yeast display, Sf9 membrane polyspecificity reagent, FACS + sequencing; frameworks hold sequencing errors
How it was run: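 A synthetic nanobody library was expressed on Saccharomyces cerevisiae BJ5465 by galactose induction for 36–48 hours. The library was stained for 1 hour at 4 °C with 10% biotinylated, detergent-solubilized Sf9 membrane reagent and enriched with streptavidin microbeads before FACS. Low and high (top ~1%) gates were set on anti-HA fluorescence for expression and streptavidin fluorescence for reagent binding, and each polyreactivity label reflects the gate of origin.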

Sequence	polyreactivity (PSR sort gate)
QVQLVESGGGIVQAGGSLRLSCAASGRIFVRYAMGWYRQAPGKERELVAAISKSGGSTYYADSVKGRFTISRENAKNTVYLQMYSLKPEDTAVYYCNALVRRRPGYIRYDYWGQGTQVTVSS	low polyreactivity
QVQLVESGGGLVQAGGSLRLSCAASGFIFYKNAMGWYRQAPGKERELVAAISASGVRTYYADSVKGRFTISRDNAKNTVYLQMNSLKPEDTAVYYSAADYTPEYYWGQGTQVTVSS	high polyreactivity
QVQLVESGGGLVQAGGSLRLSCAASGRTFWTNAKGWYRQAPGKERDFFAAISWRGASTFYADSVKGRFTISRYNAKNTVYLQMNSLKPEDTAVYYCAAQSRTRSFYGKYDSWGQGTQVTVSS	low polyreactivity
QGQLVESGGGLVQAGGSLRLSCAASGFTFQYYAMGWSRQAPGKERELVAAISWSGGRTYYADSVKGRFTISRDNAKNTESLQMNSLKPEDTAVYYCAASYIVYPARYEDEGDYWGQGTQVTVSS	high polyreactivity
QVQLVESGGGLVQAGGSLRLSCAASANIFKPNAMGWYRQAPGKERELVAAISDSGGNTYYADSVKGRFTISRDNAKNTVYLQMNSLKPEDTAVYYCARRYYWYSGRYDYWGQGTQVTVSS	high polyreactivity
QVQLVESGGGLVPAGGSLPLSCAASGSTFSGHTMGWYRQAPGQDWELVADINWSSGSTYYADSVKGRFTISRDNAKNNVYLQMHSLKPEDTALLYCAAVEPFSDFDYWGQGTQVTLSS	low polyreactivity
QVQLLESGGGLVQAGGSLRLICAASGSTFVVYAMGWYRQAPGKERELVAAIRSGGGTYYADSVKGRFTISRDNAKNTVYLQMNSQKPEDTAVYYCNADSDPGPAYVYRDLYDYWGQGTQVTLSS	low polyreactivity
QVQLVESGGGLVQAGGSLRLSCAASGRTFVYNAMGWYRQAPGKERELVAAISFGGGNTYYADSVKGRFTISRDNAKNTVYLQMNSLKPEDTAVYYCAKAYIGYWGASWYYAYDYWGQGTQVTVSS	low polyreactivity
QVQLVESGGGLVQAGGSHRLSCAASGSTFVVYSLGWYRQAPGKERELVAAITSSGGRTYYADSVKGRFTISRDNAKNTVYLQMNSLKPDDTAVYYGNAVYSRQSSNKGEYWGQGTQVTVSW	high polyreactivity
QVQLVESGGGLVQAGGSLRLSCAASGYISSYNPMGWSRQAPGKERELVASITRGGSTYYADSVKGRFTISRDNAKNTVYLQMNSLKPEDTAVYYCAADTLRQYDYEYWGQGTQVTVSS	high polyreactivity
QVQLVESGGGLVQAGGSLRLSCAASGRIFSHNAMGWYRQAPGKERELVASIRSSSGRTYYADSVKGRITISRDNAKNTVYLQMNSLTPEDTAVYYCAARQYSSKPYLYGYNYWGQGTQVTVSS	high polyreactivity
QVQLVESGGGLVQSGGSLRLSCAASGRIFYYNAMGWYRQAPGKERELVAAITSSSGSSTYYADSVKGRFTISRDNAKNTVYLQMNSLKPEDTAVYYCNAASLDRFFGYRYNDDDYWGQGTQVTVSS	low polyreactivity
QVQLVESGGGLVQAGGSLRLRCASSGRTFRYNAMGWYRQAPGKERELVATISSSGGSTSYADSVKGRFTISRDNAKKTVYLQMNSLKPEDTAVYYCNKRRLVAAGNGMDSWGQGTQVTVSS	low polyreactivity
QVQLVESGGGLVQEGGSLRLSCAASGSIFDVYAMGWYRQAPGKERELVAAISSSGSTYYADSVKGRFTISRDNAKNTVYLQMNSLKPEDTAVYYCAADQADDDDYYYWGQVTQVTVSS	low polyreactivity
QVQLVESGGGLVQAGGSLRLSCAASGSTFQYYAMGWYRQAPGKERELVASISLSGTSTYYADSVKGRFTISRDNAKNTVYLQMNSLKPEDTAVYYCAADIVPWWASFLYDGEDYWGQGTQVTVSS	low polyreactivity
QVQLVESGGGLVQAGGSLRLSCAASGRIFGSFAMGWYRQAPGKERELVAAITKRGGRTYYADSVKGRFTISRDNANNTVYLQMNSLKPEDTAVYYCRIASYDYWGQGTQVTVSA	high polyreactivity
QVHLVESGGGLVQAGGSLRLSCAASGRIFVPYVMGWNRQAPGTERELVASISDSDTSTYYADSVKGRFTISRDNAKNTVYVEMISLKPEDTAVYDCNVDYWGQGTHVTVSS	low polyreactivity
QVQLVESGGGLVQAGGSLRLSCAASGSTFRYNAMGWYRQAPGKERELVAAITSTGDSTYYADSVKGRFTISRDNAKNTVYLQMNSLKPEVTAVYYCAARSYASPGWRYEFWGQGTQVTVSS	low polyreactivity
QVQLVESGGGLVQAGGSLRLSCAASGFIFDTNAMGLYRQAPGKERELVATISTSGGSTSYADSVKGRFTISRDNAKNTVYLQMNSLTPEDTAVYYCAARWYFPDRVKYDYWGQGTQVTVSS	low polyreactivity
QVQLVESGGGLVQAGGSLRLSCAASGNTFLRYAMGWYRQAPGKERELVAAISRSGGSTYYADSVKGRFTISRDNAKNTVYLQMNSLKPEDTAVYYCATRVYFSPYRYDYWGQGTQVTVSS	high polyreactivity
QVQLVESGGGLVQAGGSLRLSCAASGSIFGTYAMGWYRQAPGKERELVARISGGGSTYYADSVKGRFTISRDNAKNTVYLQMNSLKPEDTAVYYCNVRKWAYCSHAIIYNYWGQGTQVTVSS	high polyreactivity
QVQLVESGGGLVQAGGRLRLSCAASGGTFYYYAMGWYRQAPGKERELVAAIRRRGGGTYSADSVKGRFTISRDNAKNTVYLQMNSLKPEDTAVYYCARDKLRSWWGDYNTYYPDDSWGQGTQVTVSS	high polyreactivity

Sequence	polyreactivity (PSR sort gate)
QVQLVESGGGLVQAGGSLRLSCAASGRIFGGYAMGWSRQAPGKERELVAAISNGGSTYYADSVKGRFTISRDNAKNTVYLQMNSLKPEDTAVYYCAARWNWTGYRYDHWGQGTQVTVSS	low polyreactivity
QVQLVESGGGLDQAGGSLRLSCAASGSIFNYKAMGWYRQAPGKEREMVAGISYHGDSTYADSVKGPFTISRDNAKNTVYLQMKSLKPEDTAVYYCAALGPDDWLWAGDYWGQGTQVTVSS	low polyreactivity
QVQLVESGLGLVQAGGSLRISCAASGRIFYYNAMGWYRQAPGKERELVARIRRSGGRTYYADSVKGRFTISRDNAKNTVYLLMNSLKPADTAVYYCAARRQGRSGNGSWGQGTQVTVSW	high polyreactivity
QVQLVESGGGLVQAGGSLRLSCAASGSIIRAYAMGWYRQAPGKERELVAAITIGDSTYYADSVKGRFTISRDNAKNTVYLQMNSLKPEDTAVYYCAAKSQHLYTRRFNYWGQGTQVTVSS	low polyreactivity
QVQLVESGGGLVQAGGSLRLSCAASGSIFNYYVMGWYRQAPGKERELVAGIRWNGGSTYYADSVKGRFTISRDNAKNTVYLQMNSLKPEDTAVYDCAAQAWWGYYSRGPMDYWGQGTQVTVSS	low polyreactivity
QVQLVESGGGLVQAGGSLRLSCAASGSIFGRYAMGWYRQAPGKEREFVSAISSSGGRTYYADSVKGRFPISRDNAKNTVYLQMNSLKPEDTAVYYCATEGYYSRTRLYLEYDYWGQGTQVTVSS	high polyreactivity
QVQLVESGGGLVQAGGSLRLSCAASGSIFTSYAMGWYRQAPGKERELVAGIDWSGGGTYYADSVKGRFTISRDNAKNTVYLQMNSLKPEDTAVYYCNADGPYTRYGPVDYWGQGTQVTVSS	low polyreactivity
QVQLVETGGGLVQAGGSLRLSCAASGSIFHPYGIGSYRQGPGKERELVAAITSSGGDTYYADSVKGRFTISRDNSKNTVYLQINSLKPEDTAVYYCAATGLPGYYAYDYWGQGTQVTVSS	low polyreactivity
QVQVVESGGGLVQAGGSLRLSCAASGSIFPVYAMGWYRQAPGKERELVAAISSGGSTNYADSVKGRFTISRDNAKNTVYLQRNSLKPEDTAVYYSARRWYYVRHGYWGQGTQVTVSS	high polyreactivity
QVQLVESGGGLVQDGGSLRLSCAASGRIFGYYAMGGYRQAPGKERELVASINGGGSTNYADSVKGRFTISRDNAKTTVYLQMNSLKPEDTAVYDCAAAQWAYWLLYNYWGHGTQVTVSS	low polyreactivity
QVQLVESGGGLVQAGGSLRLSCAASGFTFQYYTKGWYRQAPGKERELVAAISARGGSTYYADSVKGRFTISRDNAKNTVYLQMNSLKPEDTAVYYCNTVGIGAWGYSYPDEDNYWGQGTQVTVSS	low polyreactivity
QVQLVESGGGLVQAGGSLRLSCAASGRIFARNAMGWYRQAPGKERELVATIRVGGGSTYYADSVKGRFTISRDNAKNTVYLQMNSLKPEDTAVYSCAVRQLYSYPGDRRGYYWGQGTQVTVSS	low polyreactivity
QVHLVESGGGLVQAGGSLRLSCAASGFIFSCYAMGWYRQAPGKERELVATITSGGSTVYADSVKGRFTISRDNAKNTVSLEMNSLKPEDTAVYYSNVDSTLYYLSRDYDYWGQATQVTVSS	high polyreactivity
QVQLVESRGGLVQAGGSLRLSSAASGFIFDDNAMGWYRQAPGKERQLVAAITSGGGSTYYADSVKGRFTISRDNAKNTVYLQMNSLKPDDTAVYSCNAKLFIRWFTYDYWGQGTQVTVSS	low polyreactivity
QVQLVESGGGLVQAGGSLRVSCAASGFIIIGYVMGWYRQSPGKERELVAAITSSGGSTYYADSVKGRFTISRDNAKNTVYLQMNSLKPEDTAVYYWNADIYISPLVQVSKGYDYWGQGTQVTVSS	low polyreactivity
QVQLVESGVGLVQAGGSLRLSCASSGSIFGRYTMGWYRQAPGKERELVAAITLRGGSTYYADSVKGRFTISRDNAKNTVYLQMNSLNQEDSAVYYCANDGWKQSAYDYWGQGTQVTVSS	low polyreactivity
QVQLVESGGGLVQAGGSLRLSCAASGSIVVHNAMGWYRQAPGKERELVAAITWSGGSTYYADSVKGRFTISRDNAKNTVYLQMNSLKPVDTAVYYCAAEDVAAQWAYESPTSYWYYYWGQGTQVTVSS	low polyreactivity
QVQLVESGGGLVQAGGSLRLSCAASGRTFGFNVMGWYRQAPGKERELVAAISWSGGSTYYADSVKGRFTISRDNAKNTVYLQLNSLKPADTAVYYCNKRYVHRYGYWGQGTQVTVSS	low polyreactivity
QVHLVESGRGLVQAGRSLRLSCAASGLTFDWYDMGCYRQAPGKERELVAAITSVGSTYYADSVKGRFTISRDNAKKTVYLQMNSLKPEDTAVYYCGVEGVIWSFWPYEYWGQGTQVTVSS	high polyreactivity
QVQLVESGGGLVQAGGSLRLSCAASGRIFYGNTMGWYRQAPGKERELVAAITWRGGSTYYADSVKGRFTISRDNAKNTVYLQMNSLKPEVTAVYYCAAVSYRGRGYWGQGTQVTVSS	high polyreactivity
QVQLVESVGGLLQAGGSLRLSCDASGSIFADYAMGWYRQAPGKERELVAVITSSGGSTNYADSVKGRFTISRDNAKNTVYLQMNSLKPEDTAVYYCNRRPYPSYDYWGQGTQVTVSS	low polyreactivity
